This passage reports Kd, koff and kon results from patent EP1899377B1 (GLAXO GROUP LIMITED, dated 2012).

For experiment [1], the target named is T1, GST-human NOGO-A56 (human, UniProt Q9NQC3 586-785).
T1 construct: GST-tagged fusion expressed in E. coli BL21 from pGEX-6P1; also called hNOGO; human NOGO 5+6 GST; not shown: Glutathione S-transferase tag encoded by vector pGEX-6P1 (N-terminal, with vector linker)
T1 sequence: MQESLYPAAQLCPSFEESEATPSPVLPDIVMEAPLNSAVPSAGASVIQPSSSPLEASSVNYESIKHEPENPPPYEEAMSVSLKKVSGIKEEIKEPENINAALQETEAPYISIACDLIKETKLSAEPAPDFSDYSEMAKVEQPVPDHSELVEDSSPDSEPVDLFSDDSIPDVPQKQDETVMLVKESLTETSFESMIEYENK
The experiment in a line: SPR (Biacore T100), reverse format: antibody captured on Protein A, human NOGO 5+6 GST as analyte, 1:1 model; mean (SD) of 5 or 6 runs. In general terms: In SPR one partner is held on a chip, and binding of the other changes the refractive index at the surface.

For experiment [2], the target named is T1, GST-human NOGO-A56. Nature of the experiment: SPR (Biacore), GST-human NOGO-A56 immobilised, purified antibody as analyte; single experiment.
The target in experiment [3] is T1, GST-human NOGO-A56. Nature of the experiment: SPR (Biacore), GST-human NOGO-A56 immobilised, purified antibody as analyte; mean (SD) of 12 runs.
In experiment [4] the target is T1, GST-human NOGO-A56. Nature of the experiment: SPR (Biacore), GST-human NOGO-A56 immobilised, purified antibody as analyte; single experiment. This is another data set of the same source.
Experiment [5] deals with T1, GST-human NOGO-A56. The experiment is described as above. The source holds these as a separate data set.
The target of experiment [6] is T1, GST-human NOGO-A56. Nature of the experiment: SPR off-rate ranking, supernatant from small-scale transient transfection over immobilised GST-human NOGO-A56; single experiment.
Experiment [7] concerns the target T1, GST-human NOGO-A56. The experiment in a line: SPR (Biacore), GST-human NOGO-A56 immobilised, purified antibody as analyte; single experiment (value said to be not typical).

B1: HcLc (antibody, human IgG1, kappa, V domains shown)
VH: QVQLQQPGTELVKPGASVKLSCKASGYTFTSYWMHWVKQRPGQGLEWIGNINPSNGGTNYNEKFKSKATLTVDKSSSTAYMQLSSLTSEDSAVYYCELGQGYWGQGTLVTVSS
VL: DIVITQDELSNPVTSGESVSISCRSSKSLLYKDGKTYLNWFLQRPGQSPQLLIYLMSTRASGVSDRFSGSGSGTDFTLEISRVKAEDVGVYYCQQLVEYPLTFGAGTKLELKR
notes: also called chimera of 2A10; 2A10 chimeric antibody
Consider B1, for which the Kd was determined as 0.41 nM with GST-human NOGO-A56 [1]; 1.42 nM with GST-human NOGO-A56 [2]; 1.9 nM in the experiment with GST-human NOGO-A56 [3]; 1.59 nM in the experiment with GST-human NOGO-A56 [4]; 1.7 nM in the experiment with GST-human NOGO-A56 [5]. Also, the off-rate constant (koff) with GST-human NOGO-A56 [1] came out at 0.000569 s⁻¹; with GST-human NOGO-A56 [2], 0.0035 s⁻¹; with GST-human NOGO-A56 [3], 0.00754 s⁻¹; with GST-human NOGO-A56 [4], 0.00369 s⁻¹; in the experiment with GST-human NOGO-A56 [5] it was 0.0044 s⁻¹; in the experiment with GST-human NOGO-A56 [6], 0.00392 s⁻¹. In addition, the on-rate constant (kon) with GST-human NOGO-A56 [1] turned out to be 1.38e+06 M⁻¹ s⁻¹; in the experiment with GST-human NOGO-A56 [2] it was 2.46e+06 M⁻¹ s⁻¹; with GST-human NOGO-A56 [3], 3.92e+06 M⁻¹ s⁻¹; in the experiment with GST-human NOGO-A56 [4], 2.32e+06 M⁻¹ s⁻¹; with GST-human NOGO-A56 [5] it was 2.6e+06 M⁻¹ s⁻¹.

B2: H1L11 (antibody, human IgG1, kappa, V domains shown)
VH: QVQLVQSGAEVKKPGASVKVSCKASGYTFTSYWMHWVRQAPGQGLEWMGNINPSNGGTNYNEKFKSRVTMTRDTSTSTVYMELSSLRSEDTAVYYCELGQGYWGQGTLVTVSS
VL: DIVITQSPLSLPVTLGQPASISCRSSKSLLYKDGKTYLNWFQQRPGQSPQLLIYLMSTRASGVPDRFSGGGSGTDFTLKISRVEAEDVGVYYCQQLVEYPLTFGQGTKLEIKR
Regarding B2, the figures for the Kd in the experiment with GST-human NOGO-A56 [2], with GST-human NOGO-A56 [4] and with GST-human NOGO-A56 [5] were 21 nM, 18.4 nM and 22.3 nM, respectively. In addition, the koff was 0.0282 s⁻¹ in the experiment with GST-human NOGO-A56 [2], 0.0219 s⁻¹ in the experiment with GST-human NOGO-A56 [4], 0.031 s⁻¹ in the experiment with GST-human NOGO-A56 [5] and 0.0196 s⁻¹ with GST-human NOGO-A56 [6]. Further, the on-rate constant (kon) turned out to be 1.34e+06 M⁻¹ s⁻¹ with GST-human NOGO-A56 [2], 1.19e+06 M⁻¹ s⁻¹ with GST-human NOGO-A56 [4] and 1.4e+06 M⁻¹ s⁻¹ in the experiment with GST-human NOGO-A56 [5].

B3: H20L16 (antibody, human IgG1, kappa, V domains shown)
VH: QVQLVQSGAEVKKPGASVKVSCKASGYTFTSYWMHWVRQAPGQGLEWIGNINPSNGGTNYNEKFKSKATMTRDTSTSTAYMELSSLRSEDTAVYYCELGQGYWGQGTLVTVSS
VL: DIVMTQSPLSNPVTLGQPVSISCRSSKSLLYKDGKTYLNWFLQRPGQSPQLLIYLMSTRASGVPDRFSGGGSGTDFTLKISRVEAEDVGVYYCQQLVEYPLTFGQGTKLEIKR
notes: human gamma1 mutated constant region, human kappa; also called H20L16 FL
For the molecule B3, the Kd came to 0.31 nM with GST-human NOGO-A56 [1], 1.61 nM in the experiment with GST-human NOGO-A56 [2], 1.86 nM with GST-human NOGO-A56 [3] and 1.7 nM with GST-human NOGO-A56 [5]. Besides, the dissociation rate constant (koff) amounted to 0.000313 s⁻¹ in the experiment with GST-human NOGO-A56 [1]; 0.00847 s⁻¹ in the experiment with GST-human NOGO-A56 [2]; 0.0102 s⁻¹ in the experiment with GST-human NOGO-A56 [3]; 0.0073 s⁻¹ with GST-human NOGO-A56 [5]; 0.00718 s⁻¹ in the experiment with GST-human NOGO-A56 [6]. For the same molecule, the kon came to 1.01e+06 M⁻¹ s⁻¹ with GST-human NOGO-A56 [1], 5.24e+06 M⁻¹ s⁻¹ with GST-human NOGO-A56 [2], 5.43e+06 M⁻¹ s⁻¹ in the experiment with GST-human NOGO-A56 [3] and 4.4e+06 M⁻¹ s⁻¹ in the experiment with GST-human NOGO-A56 [5].

B4: H16L16 (antibody, human IgG1, kappa)
heavy: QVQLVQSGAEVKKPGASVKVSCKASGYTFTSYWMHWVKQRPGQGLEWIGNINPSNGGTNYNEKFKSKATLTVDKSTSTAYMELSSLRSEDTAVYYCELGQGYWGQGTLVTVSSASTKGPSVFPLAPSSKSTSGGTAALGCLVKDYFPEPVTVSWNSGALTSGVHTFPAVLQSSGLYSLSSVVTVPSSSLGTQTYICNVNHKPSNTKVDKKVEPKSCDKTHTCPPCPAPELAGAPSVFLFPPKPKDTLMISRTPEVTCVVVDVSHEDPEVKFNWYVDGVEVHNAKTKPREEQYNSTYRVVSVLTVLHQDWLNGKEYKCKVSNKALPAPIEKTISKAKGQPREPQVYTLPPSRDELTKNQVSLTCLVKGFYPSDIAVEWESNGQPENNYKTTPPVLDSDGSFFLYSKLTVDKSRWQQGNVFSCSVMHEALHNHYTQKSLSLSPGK
light: DIVMTQSPLSNPVTLGQPVSISCRSSKSLLYKDGKTYLNWFLQRPGQSPQLLIYLMSTRASGVPDRFSGGGSGTDFTLKISRVEAEDVGVYYCQQLVEYPLTFGQGTKLEIKRTVAAPSVFIFPPSDEQLKSGTASVVCLLNNFYPREAKVQWKVDNALQSGNSQESVTEQDSKDSTYSLSSTLTLSKADYEKHKVYACEVTHQGLSSPVTKSFNRGEC
In the experiment with GST-human NOGO-A56 [7], B4 yielded a Kd of 3.4 nM, a koff of 0.004 s⁻¹ and an on-rate (kon) of 1.2e+06 M⁻¹ s⁻¹. Further, the koff with GST-human NOGO-A56 [6] amounted to 0.00577 s⁻¹.

For orientation: Kd means a measure of binding affinity in units of concentration. A high value points to lower affinity. The term koff denotes the first-order rate constant of dissociation. Broadly, the kon is a measure of how fast the partners come together. A lower kon goes with slower complex formation.
